In article PMC10937380:

Molecular target: preformed E3mUU–UFC1–UFM1 complex (UniProt O94874)
Test: ITC; MicroCal PEAQ-ITC, 25 °C, 25 mM HEPES pH 7.5, 200 mM NaCl, 0.44 mM TCEP; 13 injections (19 for UFBP1 UFIM–UFM1)

CDK5RAP3 (from UniProt Q96JB5 1-506) (natural protein)
Kd: 500 nM
